Assay results: patent US20150050271A1 (published 2015)

Columns and labels:
WT (2B) = assay: ELISA
WT (1A) = assay: ELISA
WT (2A) = assay: ELISA
WT (1B) = assay: ELISA
WT (3) = assay: ELISA
[1] = target: T1, MAD1 JCV VLPs (virus-like particles of JCV capsid protein VP1, MAD1 strain) (JC virus (JCV), MAD1, UniProt P03089 1-354); assay: ELISA
[2] = target: T1, MAD1 JCV VLPs (virus-like particles of …); assay: Biacore; Fab
[3] = target: T1, MAD1 JCV VLPs (virus-like particles of …); assay: Biacore; mAb
Type 3 wt = assay: Biacore; mAb; printed ≤

T1 sequence (P03089 whole entry): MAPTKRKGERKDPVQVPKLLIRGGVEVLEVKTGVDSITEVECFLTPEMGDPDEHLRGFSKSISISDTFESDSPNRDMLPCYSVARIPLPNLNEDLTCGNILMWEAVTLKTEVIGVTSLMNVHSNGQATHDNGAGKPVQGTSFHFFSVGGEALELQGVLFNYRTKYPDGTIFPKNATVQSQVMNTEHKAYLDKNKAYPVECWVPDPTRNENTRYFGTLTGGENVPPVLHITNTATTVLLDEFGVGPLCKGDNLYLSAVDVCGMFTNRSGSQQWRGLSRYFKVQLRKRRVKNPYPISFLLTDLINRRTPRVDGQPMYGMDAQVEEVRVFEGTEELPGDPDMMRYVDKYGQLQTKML

B1: BIIB048 (antibody, V domains shown)
VH: QVQLVESGGGVVQPGRSLRLSCAASGFSFDRNYWIAWVRQAPGKGLEWVAVISAGGSGNTYYATWAKGRFTISRDNSKNTLYLQMNSLRAEDTAVYYCARFYSGGGYYAGYFTLWGQGTLVTVSS
VL: AIQLTQSPSSLSASVGDRVTITCQASQSIGNNLAWYQQKPGKAPKLLIYLASYLASGVPSRFSGSGSGTDFTLTISSLQPEDFATYYCQSSYYSPNDNAFGQGTKVEIK
- EC50 (WT (2B)): < 0.1 nM
- EC50 (WT (1A)): < 0.1 nM
- EC50 (WT (2A)): < 0.1 nM
- EC50 (WT (1B)): < 0.1 nM
- EC50 (WT (3)): < 0.1 nM

B2: antibody 50/31-G (heavy chain H0 V50G, light chain L2-N31A, as told in paragraph 169) (antibody, V domains shown)
VH: QVQLVESGGGVVQPGRSLRLSCAASGFSFDRNYWIAWVRQAPGKGLEWVAGISAGGSGNTYYATWAKGRFTISRDNSKNTLYLQMNSLRAEDTAVYYCARFYSGGGYYAGYFTLWGQGTLVTVSS
VL: AFQLTQSPSSLSASVGDRVTINCQASQSIGANLAWYQQKPGKAPKLLIYLASYLASGVPSRFSGSGSGTQFTLTVSSLQPEDFATYYCQSSYYSPNDNAFGQGTKVEIK
- EC50 [1]: < 0.1 nM

B3: 5031G (antibody, V domains shown)
VH: QVQLVESGGGVVQPGRSLRLSCAASGFSFDRNYWIAWVRQAPGKGLEWVAGISAGGSGNTYYATWAKGRFTISRDNSKNTLYLQMNSLRAEDTAVYYCARFYSGGGYYAGYFTLWGQGTLVTVSS
VL: AFQLTQSPSSLSASVGDRVTINCQASQSIGANLAWYQQKPGKAPKLLIYLASYLASGVPSRFSGSGSGTQFTLTVSSLQPEDFATYYCQSSYYSPNDNAFGQGTKVEIK
- EC50 (WT (2B)): < 0.1 nM
- EC50 (WT (1A)): < 0.1 nM
- EC50 (WT (2A)): < 0.1 nM
- EC50 (WT (1B)): < 0.1 nM
- EC50 (WT (3)): < 0.1 nM

B4: V50A/N31A Fab (antibody, V domains shown)
VH: QVQLVESGGGVVQPGRSLRLSCAASGFSFDRNYWIAWVRQAPGKGLEWVAAISAGGSGNTYYATWAKGRFTISRDNSKNTLYLQMNSLRAEDTAVYYCARFYSGGGYYAGYFTLWGQGTLVTVSS
VL: AFQLTQSPSSLSASVGDRVTINCQASQSIGANLAWYQQKPGKAPKLLIYLASYLASGVPSRFSGSGSGTQFTLTVSSLQPEDFATYYCQSSYYSPNDNAFGQGTKVEIK
- Kd [2]: 8.9 nM

B5: antibody 50/31-A (heavy chain H0 V50A, light chain L2 N31A) (antibody, V domains shown)
VH: QVQLVESGGGVVQPGRSLRLSCAASGFSFDRNYWIAWVRQAPGKGLEWVAAISAGGSGNTYYATWAKGRFTISRDNSKNTLYLQMNSLRAEDTAVYYCARFYSGGGYYAGYFTLWGQGTLVTVSS
VL: AFQLTQSPSSLSASVGDRVTINCQASQSIGANLAWYQQKPGKAPKLLIYLASYLASGVPSRFSGSGSGTQFTLTVSSLQPEDFATYYCQSSYYSPNDNAFGQGTKVEIK
- Kd [3]: 0.9 nM

B6: H0/L0 Fab (antibody, V domains shown)
VH: QVQLVESGGGVVQPGRSLRLSCAASGFSFDRNYWIAWVRQAPGKGLEWVAVISAGGSGNTYYATWAKGRFTISRDNSKNTLYLQMNSLRAEDTAVYYCARFYSGGGYYAGYFTLWGQGTLVTVSS
VL: AIQLTQSPSSLSASVGDRVTITCQASQSIGNNLAWYQQKPGKAPKLLIYLASYLASGVPSRFSGSGSGTDFTLTISSLQPEDFATYYCQSSYYSPNDNAFGQGTKVEIK
- Kd [2]: 50 nM

B7: H0/L0 mAb (antibody, V domains shown)
VH: QVQLVESGGGVVQPGRSLRLSCAASGFSFDRNYWIAWVRQAPGKGLEWVAVISAGGSGNTYYATWAKGRFTISRDNSKNTLYLQMNSLRAEDTAVYYCARFYSGGGYYAGYFTLWGQGTLVTVSS
VL: AIQLTQSPSSLSASVGDRVTITCQASQSIGNNLAWYQQKPGKAPKLLIYLASYLASGVPSRFSGSGSGTDFTLTISSLQPEDFATYYCQSSYYSPNDNAFGQGTKVEIK
- Kd (Type 3 wt): < 0.01 nM

B8: humanized R399 H0L0 (antibody, V domains shown)
VH: QVQLVESGGGVVQPGRSLRLSCAASGFSFDRNYWIAWVRQAPGKGLEWVAVISAGGSGNTYYATWAKGRFTISRDNSKNTLYLQMNSLRAEDTAVYYCARFYSGGGYYAGYFTLWGQGTLVTVSS
VL: AIQLTQSPSSLSASVGDRVTITCQASQSIGNNLAWYQQKPGKAPKLLIYLASYLASGVPSRFSGSGSGTDFTLTISSLQPEDFATYYCQSSYYSPNDNAFGQGTKVEIK
- EC50 [1]: < 0.1 nM
